± gives the uncertainty stated by the source.
Experiment: self-splicing fitness, log relative to wild type (ln ratio); higher = more splicing; Tetrahymena group I intron in knt gene, E. coli kanamycin selection, DiMSum; sequences stand for … in CUCUCU…GGAGGGAAAAGUUAUCAGGCAUGCACCUGGUAGCUAGUCUUUAAACCAAUAGAUUGCAUCGGUUUAAAAGGCAAGACCGUCAAAUUGCGGGAAAGGGGUCAACAGCCGUUCAGUACCAAGUCUCAGGGGAAACUUUGAGAUGGCCUUGCAAAGGGUAUGGUAAUAAGCUGACGGACAUGGUCCUAACCACGCAGCCAAGUCCUAAGUCAACAGAUCUUCUGUUGAUAUGGAUGCAGUUCACAGACUAAAUGUCGGUCGGGGAAGAUGUAUUCUUCUCAUAAGAUAUAGUCGGACCUCUCCUUAAUGGGAGCUAGCGGAUGAAGUGAUGCAACACUGGAGCCGCUGGGAACUAAUUUGUAUGCGAAAGUAUAUUGAUUAGUUUUGGAGUACUCGUGGUCG
How it was run: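 Six replicate transformations of E. coli BL21(DE3) with a pET-22b(+) library were grown overnight at 37°C or 30°C. The library randomised all eight P1ex-region intron nucleotides, the intron lying in the knt kanamycin-resistance gene, and plates were LB agar with or without 25 μg/mL kanamycin plus 100 μg/mL carbenicillin, 50 μM IPTG and 0.2% rhamnose. Pooled colonies were amplicon-sequenced on an Illumina HiSeq 2500, and fitness is the DiMSum error-weighted combination of wild-type-normalised replicate fold changes, kanamycin versus none.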

Row | Sequence | self-splicing fitness (ln) (30 °C) | self-splicing fitness (ln) (37 °C)
1 | UACCAGCAAUAUUACGAACG | -0.468 ± 0.063 | -0.562 ± 0.07
2 | AUUUAGCAAUAUUACGAUGG | -2.89 ± 0.34 | –
3 | UUAUAGCAAUAUUACGCCAU | -3.93 ± 0.31 | -3.15 ± 0.28
4 | AUUAAGCAAUAUUACGUUUU | -2.27 ± 0.11 | -1.81 ± 0.12
5 | GACUAGCAAUAUUACGCUCC | -3.46 ± 0.47 | –
6 | UCUCAGCAAUAUUACGUUUG | -4.44 ± 0.19 | -3.1 ± 0.15
7 | AGGAAGCAAUAUUACGCUAG | -2.44 ± 0.42 | –
8 | AUGCAGCAAUAUUACGUAAU | -0.641 ± 0.05 | -0.479 ± 0.066
9 | CCGGAGCAAUAUUACGAUUC | – | -2.85 ± 0.38
10 | ACCGAGCAAUAUUACGGAGG | -3.01 ± 0.2 | -2.72 ± 0.23
11 | CUGCAGCAAUAUUACGCGCG | -1.6 ± 0.075 | -0.249 ± 0.087
12 | UUCCAGCAAUAUUACGUCCA | -1.05 ± 0.12 | -0.679 ± 0.14
13 | CACUAGCAAUAUUACGCUUU | -4.28 ± 0.42 | -1.57 ± 0.2
14 | CGCAAGCAAUAUUACGUCCC | -2.84 ± 0.34 | -0.615 ± 0.26
15 | UCUUAGCAAUAUUACGUUGC | -3.46 ± 0.47 | –
16 | UAGUAGCAAUAUUACGUUGU | -4.09 ± 0.25 | -2.13 ± 0.14
17 | GGGAAGCAAUAUUACGACUC | -1.17 ± 0.1 | -0.341 ± 0.13
18 | CGCUAGCAAUAUUACGAUAC | -3.07 ± 0.21 | -2.31 ± 0.16
19 | UCGUAGCAAUAUUACGACAC | -3.54 ± 0.34 | -2.7 ± 0.4
20 | GGCCAGCAAUAUUACGUUCA | -3.23 ± 0.23 | -0.905 ± 0.19
21 | CAAAAGCAAUAUUACGACAG | -0.12 ± 0.062 | -0.154 ± 0.083
22 | GUAUAGCAAUAUUACGACCA | -0.996 ± 0.17 | -0.193 ± 0.17
23 | AGGUAGCAAUAUUACGUCGA | -1.4 ± 0.016 | -0.563 ± 0.033
24 | ACAUAGCAAUAUUACGUUUG | -2.83 ± 0.12 | -2.51 ± 0.15
25 | UCUAAGCAAUAUUACGGGUA | -1.64 ± 0.11 | -0.58 ± 0.1
26 | CCUCAGCAAUAUUACGCGCU | -2 ± 0.13 | -2.79 ± 0.25

Row | Sequence | self-splicing fitness (ln) (30 °C) | self-splicing fitness (ln) (37 °C)
27 | UGCUAGCAAUAUUACGCGUU | -1.7 ± 0.14 | -0.563 ± 0.14
28 | UAAGAGCAAUAUUACGUAGA | -3.89 ± 0.23 | -1.34 ± 0.28
29 | CUCUAGCAAUAUUACGCACG | -2.45 ± 0.17 | -1.95 ± 0.23
30 | UCUUAGCAAUAUUACGAGUC | – | -2.22 ± 0.36
31 | ACCGAGCAAUAUUACGACCU | -1.75 ± 0.11 | -0.53 ± 0.12
32 | CUCAAGCAAUAUUACGUCGU | -3.21 ± 0.15 | -1.12 ± 0.11
33 | GCAGAGCAAUAUUACGCAUG | – | -2.3 ± 0.39
34 | GUCGAGCAAUAUUACGCGGC | -3.88 ± 0.47 | -2.25 ± 0.39
35 | AACCAGCAAUAUUACGGGAG | -0.751 ± 0.036 | -0.132 ± 0.051
36 | CUAGAGCAAUAUUACGUAAU | -3.79 ± 0.2 | -2.22 ± 0.23
37 | CUAAAGCAAUAUUACGAUUG | -0.545 ± 0.053 | -0.596 ± 0.06
38 | CUCGAGCAAUAUUACGGCAU | -2.71 ± 0.19 | -3.09 ± 0.37
39 | AUGGAGCAAUAUUACGAAAC | -2.72 ± 0.4 | –
40 | CGUUAGCAAUAUUACGCUAA | – | 0.0733 ± 0.29
41 | UGCUAGCAAUAUUACGUUUG | -1.48 ± 0.074 | -0.163 ± 0.092
42 | CAAUAGCAAUAUUACGACGU | -2.06 ± 0.11 | -0.956 ± 0.11
43 | AGUAAGCAAUAUUACGUCAU | -2.97 ± 0.23 | -2.12 ± 0.19
44 | GUUCAGCAAUAUUACGCCCA | -0.553 ± 0.1 | -1.26 ± 0.1
45 | AAUAAGCAAUAUUACGCCGU | -1.24 ± 0.11 | -0.293 ± 0.11
46 | UUGCAGCAAUAUUACGGAGC | -2.2 ± 0.15 | –
47 | AUAAAGCAAUAUUACGAGGC | -3.29 ± 0.17 | -2.7 ± 0.32
48 | CCUGAGCAAUAUUACGCUUC | -3.16 ± 0.48 | -2.4 ± 0.41
49 | UGUCAGCAAUAUUACGUCAU | -1.79 ± 0.1 | -1.38 ± 0.14
50 | GGCUAGCAAUAUUACGAAAA | -1.06 ± 0.24 | -1.33 ± 0.27
51 | UCCAAGCAAUAUUACGAAGC | -2.87 ± 0.25 | -1.93 ± 0.21
52 | CAUCAGCAAUAUUACGAAGC | -3.23 ± 0.47 | -2.2 ± 0.41

Row | Sequence | self-splicing fitness (ln) (30 °C) | self-splicing fitness (ln) (37 °C)
53 | GCUCAGCAAUAUUACGCCUU | 0.0207 ± 0.11 | 0.141 ± 0.14
54 | CGCCAGCAAUAUUACGGGCA | -0.258 ± 0.095 | 0.189 ± 0.095
55 | AGCCAGCAAUAUUACGGUCU | -3.08 ± 0.18 | -2.51 ± 0.18
56 | CACUAGCAAUAUUACGGGCA | -1.91 ± 0.21 | -1.71 ± 0.21
57 | UGUUAGCAAUAUUACGGCGG | -0.72 ± 0.09 | -0.356 ± 0.1
58 | UGGCAGCAAUAUUACGCUUU | -1.24 ± 0.076 | -0.763 ± 0.1
59 | GGCAAGCAAUAUUACGGAAU | -0.693 ± 0.075 | -0.506 ± 0.1
60 | CGCCAGCAAUAUUACGACUC | -3.02 ± 0.22 | -2.21 ± 0.25
61 | UAUUAGCAAUAUUACGGAUG | -0.629 ± 0.09 | -0.294 ± 0.12
62 | CACGAGCAAUAUUACGUAAU | -3.8 ± 0.39 | -2 ± 0.27
63 | GGACAGCAAUAUUACGGUUC | -3.64 ± 0.15 | -1.82 ± 0.14
64 | AAUAAGCAAUAUUACGAAUA | -1.54 ± 0.13 | -1.62 ± 0.15
65 | AAGUAGCAAUAUUACGGGCA | -1.25 ± 0.088 | -0.149 ± 0.098
66 | GUAAAGCAAUAUUACGAGUC | -2.56 ± 0.15 | -1.38 ± 0.19
67 | GGAGAGCAAUAUUACGACGU | -1.29 ± 0.2 | -0.823 ± 0.25
68 | UACCAGCAAUAUUACGGAUU | -0.984 ± 0.071 | -0.93 ± 0.077
69 | UGCUAGCAAUAUUACGUAAG | -2.3 ± 0.19 | -1.35 ± 0.18
70 | GAGCAGCAAUAUUACGAGCG | -2.3 ± 0.092 | -1.11 ± 0.11
71 | GUACAGCAAUAUUACGGAUA | -2.46 ± 0.12 | -2.36 ± 0.14
72 | UCACAGCAAUAUUACGCGCG | -0.645 ± 0.089 | -0.233 ± 0.11
73 | CCCAAGCAAUAUUACGCCGA | -2.01 ± 0.32 | –
74 | CGCUAGCAAUAUUACGAUCU | -0.867 ± 0.1 | -1.49 ± 0.11
75 | AUGGAGCAAUAUUACGUCAA | -1.77 ± 0.35 | -0.821 ± 0.36
76 | AUUCAGCAAUAUUACGGAAG | -1.02 ± 0.096 | -0.0127 ± 0.11
77 | ACAUAGCAAUAUUACGACGC | -0.172 ± 0.071 | 0.801 ± 0.1
78 | ACUUAGCAAUAUUACGGGGC | -3.2 ± 0.18 | -2.55 ± 0.23
